Assay [1] deals with recombinant HIV-1 gp120 ZM109 (HIV-1 strain ZM109). Kind of assay: BLI; Octet Red96; recombinant gp120 coupled to AR2G biosensors, dipped into titrated SLBR-N; PBS with 0.1% BSA and 0.02% Tween 20; 1:1 global fit. A general note: BLI is a label-free optical method that tracks binding on a fibre tip over time.
The target is the same in assay [2]. Kind of assay: BLI; Octet Red96; anti-Env mAb 2219 (5 μg/mL) on AHC biosensors, then recombinant gp120 ZM109 (5 μg/mL), dipped into titrated FimH; PBS with 0.1% BSA and 0.02% Tween 20; 1:1 global fit.

As usually defined, the Kd is a measure of binding affinity in units of concentration. Take “Streptococcal Siglec-like lectin SLBR-N, GST-tagged (domain or fragment)”: the Kd in assay [1] amounted to 40.3 nM.
Consider “recombinant FimH protein (lectin domain only) (from UniProt P08191 22-179) (domain or fragment)”, for which the Kd in assay [2] is 360 nM.
